Biological target: human CD3 antigen (human) (UniProt P07766)
Assay: competitive flow cytometry on HPBALL cells; competitor: biotinylated monovalent humanised CD3 Mab

UniProt P07766, sequence (P07766 23-207): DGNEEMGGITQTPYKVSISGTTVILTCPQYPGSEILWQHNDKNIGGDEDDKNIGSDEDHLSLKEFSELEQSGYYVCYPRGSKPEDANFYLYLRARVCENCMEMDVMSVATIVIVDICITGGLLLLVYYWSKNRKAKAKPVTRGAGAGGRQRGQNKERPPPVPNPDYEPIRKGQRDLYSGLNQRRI

B1: humanised bivalent CD3 Mab (antibody, V domains shown)
VH: EVQLLESGGGLVQPGGSLRLSCAASGFTFSSFPMAWVRQAPGKGLEWVSTISTSGGRTYYRDSVKGRFTISRDNSKNTLYLQMNSLRAEDTAVYYCAKFRQYSGGFDYWGQGTLVTVSS
VL: DFMLTQPHSVSESPGKTVIISCTLSSGNIENNYVHWYQQRPGRAPTTVIFDDDKRPDGVPDRFSGSIDRSSNSASLTISGLQTEDEADYYCHSYVSSFNVFGGGTKLTVL
fold concentration for 50% competition, against rat YTH12.5 Mab: 1.3 fold

— patent publication US5968509
